Measured values from patent US20230134571A1 (INTERNATIONAL AIDS VACCINE INITIATIVE, published 2023).

How the values were obtained:
Assay in all cases: cell-based or functional assay
[1] = biological target: HIV Env, isolate Ce0393_C3 (HIV)
[2] = biological target: HIV Env, isolate Ce0682_E4 (HIV)
[3] = biological target: HIV Env, isolate X2088_C9 (HIV)
[4] = biological target: HIV Env, isolate ZM233M.PB6 (HIV)
[5] = biological target: HIV Env, isolate Ce704809221_1B3 (HIV)
HIV Env, isolate T263-8 = HIV Env, isolate T263-8 (HIV)
[6] = biological target: HIV Env, isolate ZM135M.PL10a (HIV)
[7] = biological target: HIV Env, isolate P1981_C5_3 (HIV)
[8] = biological target: HIV Env, isolate A07412M1.vrc12 (HIV)
[9] = biological target: HIV Env, isolate 7030102001E5(Rev-) (HIV)
[10] = biological target: HIV Env, isolate ZM214M.PL15 (HIV)
HIV Env, isolate CNE21 = HIV Env, isolate CNE21 (HIV)
HIV Env, isolate PVO.4 = HIV Env, isolate PVO.4 (HIV)

| Binder | IC80 (µg/ml) with constrains [1] [µg/mL] | IC80 (µg/ml) with constrains [2] [µg/mL] | IC80 (µg/ml) with constrains [3] [µg/mL] | IC80 (µg/ml) with constrains [4] [µg/mL] | IC80 (µg/ml) with constrains [5] [µg/mL] | IC80 (µg/ml) with constrains (HIV Env, isolate T263-8) [µg/mL] | IC80 (µg/ml) with constrains [6] [µg/mL] | IC80 (µg/ml) with constrains [7] [µg/mL] | IC80 (µg/ml) with constrains [8] [µg/mL] | IC80 (µg/ml) with constrains [9] [µg/mL] | IC80 (µg/ml) with constrains [10] [µg/mL] | IC80 (µg/ml) with constrains (HIV Env, isolate CNE21) [µg/mL] | IC80 (µg/ml) with constrains (HIV Env, isolate PVO.4) [µg/mL] |
| --- | --- | --- | --- | --- | --- | --- | --- | --- | --- | --- | --- | --- | --- |
| ePGDM9 (antibody, V domains shown) VH: QAQLVQSGPEVRKPGTSVKVSCKNPGNTLTTYDLHWVRQVPGQGLQWMGWISHEGDKKVIVERFKAKVTIDWDRSTNTAYLQLSGLTSEDTAVYYCAKGSKHRLRDYALYDEDGALNWAVDVDYLANLEFWGQGTAVTVSS VL: DIVLTQSPLSLSVTPGESASISCKSSQSLIHGDRNNYLAWYVQKPGRSPQLLIDLASERASGVPDRFSGSGSRKDFTLKISRVETEDVGTYYCMQGRESPWTFGQGTKVDIK | 0.017 | 0.022 | > 100 | 0.007 | 0.539 | 0.06 | > 100 | 0.585 | 0.103 | > 100 | > 100 | 0.007 | 7.7 |
| PGDM1400 (antibody, V domains shown) VH: QVHLTQSGPEVRKPGTSVKVSCKAPGNTLKTYDLHWVRSVPGQGLQWMGWISHEGDKKVIVERFKAKVTIDWDRSTNTAYLQLSGLTSGDTAVYYCAKGSKHRLRDYALYDDDGALNWAVDVDYLSNLEFWGQGTAVTVSS VL: DFVLTQSPHSLSVTPGESASISCKSSHSLIHGDRNNYLAWYVQKPGRSPQLLIYLASSRASGVPDRFSGSGSDKDFTLKISRVETEDVGTYYCMQGRESPWTFGQGTKVDIK | 0.037 | 0.037 | > 100 | 0.007 | 1.28 | 0.081 | > 100 | 75.6 | 0.115 | > 100 | > 100 | 0.011 | 13.6 |
| ePGDM13 (antibody, V domains shown) VH: QAQLVQSGPEVRKPGTSVKVSCKNPGNTLTTYDLHWVRQVPGQGLQWMGWISHEGDKKVIVERFKAKVTIDWDRSTNTAYLQLSGLTSEDTAVYYCAKGSKHRLRDYALYDEDGALNWAVDVDYLANLEFWGQGTAVTVSS VL: DIVLTQSPLSLSVTPGESASISCKSSHSLQHGDRNNYLAWYVQKPGRSPQLLLDLASERASGVPDRFSGSGSEKDFTLKISRVETEDVGTYYCMQGRESPWTFGQGTKVDIK | 0.022 | 0.043 | > 100 | 0.006 | 1.36 | 0.101 | > 100 | 1.28 | 0.118 | > 100 | > 100 | 0.006 | 11.8 |
| ePGDM5 (antibody, V domains shown) VH: QAQLVQSGPEVRKPGTSVKVSCKNPGNTLTTYDLHWVRQVPGQGLQWMGWISHEGDKKVIVERFKAKVTIDWDRSTNTAYLQLSGLTSEDTAVYYCAKGSKHRLRDYALYDEDGALNWAVDVDYLANLEFWGQGTAVTVSS VL: DFVLTQSPLSLSVTPGESASISCKSDHSLQHGDRNNYLAWYVQKPGRSPQLLIDLASERASGVPDRFSGSGSRKDFTLKIDRVEAEDVGTYYCMQGRESPWTFGQGTKVDIK | 0.063 | 0.021 | > 100 | 0.007 | 0.749 | 0.076 | > 100 | 1.18 | 0.035 | > 100 | > 100 | 0.007 | 5.57 |
